Reference: paper PMC7954794, “Protein context shapes the specificity of SH3 domain-mediated interactions in vivo” (Nature Communications, 2021)

Tested on: PPIs identified as affected by the SH3 domain deletions
Experiment: Liquid DHFR-PCA low-throughput validation of PPIs affected by SH3 deletion (Fig. S1D-E)
Assay type: cell-based, Saccharomyces cerevisiae
Details: Deletedscore/WTscore
Outline: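 Yeast diploids from DHFR-PCA mating grown 48 h in synthetic complete MSG medium pH 6.0 with NAT and HPH, normalized to 1 OD and diluted to 0.1 OD in liquid PCA selection medium. Growth followed by OD every 15 min for 72 h at 30 °C.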

B1: SHO1 (protein, UniProt P40073 1-367, looked up)
High osmolarity signaling …: MSISSKIRPTPRKPSRMATDHSFKMKKFYADPFAISSISLAIVSWVIAIGGSISSASTNESFPRFTWWGIVYQFLIICSLMLFYCFDLVDHYRIFITTSIAVAFVYNTNSATNLVYADGPKKAAASAGVILLSIINLIWILYYGGDNASPTNRWIDSFSIKGIRPSPLENSLHRARRRGNRNTTPYQNNVYNDAIRDSGYATQFDGYPQQQPSHTNYVSSTALAGFENTQPNTSEAVNLHLNTLQQRINSASNAKETNDNSNNQTNTNIGNTFDTDFSNGNTETTMGDTLGLYSDIGDDNFIYKAKALYPYDADDDDAYEISFEQNEILQVSDIEGRWWKARRANGETGIIPSNYVQLIDGPEEMHR
Ratio (prey YJL128C_1): 0.6814
Ratio (prey YOR042W_1): 0.502
